What follows are sequences tested on Escherichia coli TOP10 (assay: shrunken log2 fold change of peptide-encoding DNA abundance (4.5 h post-induction vs induction); higher = less antimicrobial activity (less host growth inhibition)). Settings: time post-induction: 4.5 h; library: site-saturation at positions 5, 18, 19, 20.
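Note: peptides expressed intracellularly from a pBAD plasmid library in pooled LB shake-flask culture, induced with 0.3% L-arabinose, DNA abundance read by NGS, three biological replicates, DESeq2 with apeglm shrinkage.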

Sequence	shrunken log2 fold change
RRIRARPPRLPRPRPRPNGWPRP	0.401
RRIRARPPRLPRPRPRPAFCPRP	0.645
RRIRFRPPRLPRPRPRPMCGPRP	-0.164
RRIRIRPPRLPRPRPRPLSYPRP	-0.528
RRIRFRPPRLPRPRPRPLEIPRP	-0.0193
RRIRKRPPRLPRPRPRPGYYPRP	-0.0439
RRIRCRPPRLPRPRPRPVKMPRP	-0.248
RRIRWRPPRLPRPRPRPRFSPRP	0.0681
RRIRCRPPRLPRPRPRPCERPRP	-0.0644
RRIRHRPPRLPRPRPRPWIWPRP	-0.0845
RRIRWRPPRLPRPRPRPKEHPRP	0.126
RRIRHRPPRLPRPRPRPCYGPRP	-0.238
RRIRPRPPRLPRPRPRPQETPRP	0.134
RRIRCRPPRLPRPRPRPQHHPRP	-0.46
RRIRIRPPRLPRPRPRPAKMPRP	-0.101
RRIRMRPPRLPRPRPRPQSSPRP	-0.0185
RRIRYRPPRLPRPRPRPGTSPRP	-0.0454
RRIRNRPPRLPRPRPRPCIMPRP	-0.135
RRIRNRPPRLPRPRPRPVKEPRP	-0.0182
RRIRTRPPRLPRPRPRPHQLPRP	-0.313
RRIRDRPPRLPRPRPRPPSTPRP	-0.0415
RRIRSRPPRLPRPRPRPVCPPRP	0.0554

Sequence	shrunken log2 fold change
RRIRTRPPRLPRPRPRPRVYPRP	-0.454
RRIRWRPPRLPRPRPRPKGWPRP	0.845
RRIRRRPPRLPRPRPRPLYNPRP	-0.295
RRIRYRPPRLPRPRPRPILRPRP	-0.172
RRIRDRPPRLPRPRPRPDPCPRP	-0.0187
RRIRHRPPRLPRPRPRPMHRPRP	0.00128
RRIRERPPRLPRPRPRPSICPRP	-0.151
RRIRQRPPRLPRPRPRPFWHPRP	-0.469
RRIRKRPPRLPRPRPRPQCIPRP	-0.149
RRIRLRPPRLPRPRPRPLFQPRP	-0.322
RRIRIRPPRLPRPRPRPPLIPRP	-0.512
RRIRPRPPRLPRPRPRPIMDPRP	-0.00126
RRIRARPPRLPRPRPRPPHGPRP	0.788
RRIRQRPPRLPRPRPRPYTKPRP	-0.111
RRIRPRPPRLPRPRPRPRDDPRP	0.23
RRIRRRPPRLPRPRPRPRTPPRP	0.616
RRIRKRPPRLPRPRPRPWTFPRP	0.489
RRIRQRPPRLPRPRPRPHGFPRP	-0.0134
RRIRTRPPRLPRPRPRPLDRPRP	0.0153
RRIRQRPPRLPRPRPRPFWEPRP	-0.0669
RRIRPRPPRLPRPRPRPAGPPRP	0.314
RRIRQRPPRLPRPRPRPDSKPRP	-0.146

Sequence	shrunken log2 fold change
RRIRIRPPRLPRPRPRPECTPRP	-0.0501
RRIRVRPPRLPRPRPRPCQVPRP	-0.0502
RRIRCRPPRLPRPRPRPRCFPRP	-0.158
RRIRVRPPRLPRPRPRPIRKPRP	-0.165
RRIRSRPPRLPRPRPRPYKLPRP	-0.399
RRIRGRPPRLPRPRPRPMTSPRP	0.445
RRIRIRPPRLPRPRPRPYCYPRP	-0.0959
RRIRMRPPRLPRPRPRPTTHPRP	0.295
RRIRDRPPRLPRPRPRPGHLPRP	-0.000122
RRIRTRPPRLPRPRPRPAMWPRP	0.35
RRIRVRPPRLPRPRPRPYIEPRP	-0.584
RRIRPRPPRLPRPRPRPLYLPRP	-0.625
RRIRQRPPRLPRPRPRPHDTPRP	-0.152
RRIRTRPPRLPRPRPRPSYIPRP	-0.511
RRIRDRPPRLPRPRPRPERRPRP	0.0137
RRIRRRPPRLPRPRPRPCEWPRP	-0.0585
RRIRDRPPRLPRPRPRPYPMPRP	-0.348
RRIRRRPPRLPRPRPRPVHLPRP	-0.022
RRIRRRPPRLPRPRPRPKFVPRP	-0.151
RRIRKRPPRLPRPRPRPFFFPRP	0.779
RRIRCRPPRLPRPRPRPVKVPRP	-0.181
RRIRLRPPRLPRPRPRPEHNPRP	-0.204

Sequence	shrunken log2 fold change
RRIRMRPPRLPRPRPRPVWGPRP	0.185
RRIRLRPPRLPRPRPRPIGSPRP	-0.0107
RRIRNRPPRLPRPRPRPMYWPRP	-0.000123
RRIRMRPPRLPRPRPRPITPPRP	0.0378
RRIRLRPPRLPRPRPRPPAYPRP	0.0545
RRIRPRPPRLPRPRPRPPPLPRP	0.699
RRIRIRPPRLPRPRPRPKFDPRP	-0.18
RRIRSRPPRLPRPRPRPFISPRP	-0.152
RRIRRRPPRLPRPRPRPPGPPRP	0.8
RRIRSRPPRLPRPRPRPGLEPRP	0.00456
RRIRQRPPRLPRPRPRPWTYPRP	0.0804
RRIRNRPPRLPRPRPRPSDPPRP	-0.192
RRIRFRPPRLPRPRPRPVEQPRP	-0.0448
RRIRKRPPRLPRPRPRPMNAPRP	0.228
RRIRFRPPRLPRPRPRPIRHPRP	-0.355
RRIRKRPPRLPRPRPRPMKTPRP	0.0431
RRIRERPPRLPRPRPRPELVPRP	0.0791
RRIRCRPPRLPRPRPRPMDWPRP	-0.0172
RRIRCRPPRLPRPRPRPIISPRP	-0.346
RRIRNRPPRLPRPRPRPNCVPRP	0.393
RRIRPRPPRLPRPRPRPYGPPRP	-0.37
RRIRERPPRLPRPRPRPFVWPRP	-0.0465

Sequence	shrunken log2 fold change
RRIRCRPPRLPRPRPRPPWVPRP	0.204
RRIRTRPPRLPRPRPRPDIYPRP	-0.138
RRIRYRPPRLPRPRPRPSDNPRP	-0.827
RRIRFRPPRLPRPRPRPCASPRP	-0.315
RRIRLRPPRLPRPRPRPNYFPRP	-0.121
RRIRVRPPRLPRPRPRPFGPPRP	-0.543
RRIRLRPPRLPRPRPRPRRAPRP	0.585
RRIRGRPPRLPRPRPRPVIEPRP	0.599
RRIRWRPPRLPRPRPRPMRHPRP	0.228
RRIRQRPPRLPRPRPRPNQVPRP	-0.0722
RRIRMRPPRLPRPRPRPSRMPRP	0.454
RRIRGRPPRLPRPRPRPKFVPRP	0.458
RRIRKRPPRLPRPRPRPIDCPRP	0.0653
RRIRGRPPRLPRPRPRPILVPRP	0.133
RRIRVRPPRLPRPRPRPNTMPRP	-0.293
RRIRFRPPRLPRPRPRPVTSPRP	-0.0369
RRIRVRPPRLPRPRPRPRWCPRP	0.295
RRIRNRPPRLPRPRPRPMILPRP	-0.0112
RRIRARPPRLPRPRPRPTELPRP	0.595
RRIRIRPPRLPRPRPRPDQSPRP	-0.138
RRIRTRPPRLPRPRPRPNNDPRP	-0.797

Reference: the supplement of paper PMC9112550, “Optimization of the antimicrobial peptide Bac7 by deep mutational scanning” (BMC Biology, 2022)
